Laboratory results published in patent publication US8609089B2, “Compositions of PD-1 antagonists and methods of use” (Amplimmune, Inc., priority 2008, dated 2013).

B1: B7-DC-Ig-APC: B7-DC-Ig conjugated with allophycocyanin (APC) (conjugate)
chain: LFTVTAPKEVYTVDVGSSVSLECDFDRRECTELEGIRASLQKVENDTSLQSERATLLEEQLPLGKALFHIPSVQVRDSGQYRCLVICGAAWDYKYLTVKVKASYMRIDTRILEVPGTGEVQLTCQARGYPLAEVSWQNVSVPANTSHIRTPEGLYQVTSVLRLKPQPSRNFSCMFWNAHMKELTSAIIDPLSRMEPKVPRTWEPRGPTIKPCPPCKCPAPNLLGGPSVFIFPPKIKDVLMISLSPIVTCVVVDVSEDDPDVQISWFVNNVEVHTAQTQTHREDYNSTLRVVSALPIQHQDWMSGKEFKCKVNNKDLPAPIERTISKPKGSVRAPQVYVLPPPEEEMTKKQVTLTCMVTDFMPEDIYVEWTNNGKTELNYKNTEPVLDSDGSYFMYSKLRVEKKNWVERNSYSCSVVHEGLHNHHTTKSFSRTPGK
B2: B7-DC-Ig: homodimer having 2 copies of SEQ ID NO: 10 linked by a disulfide linkage; mouse B7-DC ECD fused to Fc of mouse IgG2a (protein)
chain: B1 chain
modifications: homodimer via disulfide; Murine B7-DC-Ig fusion protein without signal sequence
notes: mouse B7-DC ECD fused to Fc of mouse IgG2a

How the values were obtained:
[1] = test system: Treg and CD4+ T cells expressing high PD-1; assay: T cell analysis in CT26 tumor-bearing mice (Treg, PD-1+/CD4+ T cells); assay type: in vivo, Balb/C mice
Method: On Day 9, mice were injected with 100 mg/kg of CTX, IP. […] Two naïve mice and 4 mice from other groups were removed from the study on Day 11 (2 days post CTX) and Day 16 (7 days post CTX) for T cell analysis. […] Mice implanted with tumor cells intended to have more PD-1+/CD4+ T cells in the draining LN compared with naïve mice.

[2] = test system: CT26 colorectal tumor cells; assay: CT26 subcutaneous established tumor model, tumor eradication; assay type: in vivo, Balb/C mice
Method: Mouse colorectal tumor cell line, CT26, was obtained from ATCC. A master cell bank at Passage 4 was generated following ATCC guidelines. […] One vial of tumor cells was thawed from the cryopreserved stocks and grown for two passages prior to inoculation.
CT26 cells were split at 1:5 dilution with 30 mL complete medium (RPMI+10% FBS, 2 mM L-Glu, and 1×P/S) for two days culture or at 1:10 dilution with 30 ml complete medium for 3 days culture.
CT26 cells were harvested by aspirating medium, rinsing the flask with 5 mL PBS, adding 5 mL trypsin, incubating at 37° C. for 2 min, and then neutralizing with 10 mL complete medium. After centrifuge at 600×g (˜1000 rpm) for 5 min, media was aspirated and the cell pellet was resuspended by pipetting with 10 ml plain RPMI. This wash step was repeated for three times.
Cell number and viability of the inoculated cells were analyzed by trypan blue dye staining with proper dilution (e.g. 1:5 dilution, 10 μL cells+40 μL trypan blue) and confirmed by NOVA cell count during the last wash step.
CT26 cells were diluted to 6.7×10^5 cells/mL for initial inoculation with plain RPMI and stored on ice. Typically each mouse was inoculated with 150 μL (1×10^5 cells).
CTX solution was reconstituted by 1×PBS to 4 mg/mL. […]
The same dose was given 2 time a week for 4 weeks, total 8 doses. […] Tumor volume was calculated as following: Tumor volume=π(Dshort)^2×(Dlong)/6=˜0.52×(Dshort)^2×(Dlong)
Mice were euthanized and taken off the study if the tumor volume reached 2000 mm^3 or if there were skin ulcers and infections at the tumor inoculation site.
On day 11 post tumor challenge, mice received a single dose of cyclophosphamide (100 mg/kg) and started treatment with anti-PD-1 antibody (250 ug, Clone G4, Hirano F. et al., 2005 Cancer Research) which was administered 3 times per week for four weeks.
On day 11 post tumor challenge, mice received 100 mg/kg of cyclophosphamide. Anti-CTLA4 (an anti-mouse CTLA4 from hamster hybridoma—ATCC deposit UC10-4F10-11) treatment was started 1 day later, on day 12. Mice were treated with 100 ug of anti-CTLA4, 2 doses per week, for 4 weeks.

AB1-HA tumor = conditions: CTX treatment at Day 9; van der Most et al. 2009; cited from earlier work
SP-1 cells = assay: Metastatic prostate tumor model, survival; assay type: in vivo, B10.D2 mice; conditions: CTX 50 mg/kg Day 5, 12, 19; B7-DC-Ig 5 mg/kg Day 6, 13, 20; SP-1 cells intravenously
Method: SP-1 cells were isolated from mouse lungs that were metastasized from TRAMP prostate tumor cell injection. B10.D2 mice were first injected with 3×10^5 SP-1 cells via tail vein injection. On Day 5, 12 and 19, mice were injected with 50 mg/kg of CTX where was indicated. […] Here, “NT” refers to “not treated”.
The CTX mice received 3 doses of CTX, 50 mg/kg, on Day 5, 12 and 19.

[3] = molecular target: T1, CHO cell line constitutively expressing PD-1 (Homo sapiens, UniProt Q15116); assay: Flow cytometry binding to CHO cells expressing PD-1; conditions: various concentrations
T1 construct: expressed in transfected cells; host or cells: CHO
Method: (§1) Binding was analyzed by flow cytometry.

[4] = test system: parent CHO cells that do not express PD-1; assay: Flow cytometry binding to parent CHO cells; conditions: various concentrations
Method: as §1

PD-1 = molecular target: T2, PD-1 (Homo sapiens, UniProt Q15116); assay: Competition with labeled B7-H1-Ig for binding to PD-1 on CHO cells; conditions: unlabeled competitor at various concentrations, then B7-H1-Ig-APC; MFI
T2 construct: expressed in transfected cells; host or cells: CHO
Text: B7-H1-Ig was first conjugated with allophycocyanin (APC).

T2 sequence (Q15116 25-288): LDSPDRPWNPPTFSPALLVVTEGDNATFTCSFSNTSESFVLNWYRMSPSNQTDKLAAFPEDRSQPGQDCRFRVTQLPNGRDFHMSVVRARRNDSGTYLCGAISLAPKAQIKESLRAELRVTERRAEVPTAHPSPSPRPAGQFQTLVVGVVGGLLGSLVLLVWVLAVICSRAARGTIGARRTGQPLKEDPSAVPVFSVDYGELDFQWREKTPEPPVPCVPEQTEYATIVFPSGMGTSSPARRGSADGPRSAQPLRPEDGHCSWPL
T1 sequence (Q15116 25-288): as above

Row | Molecule | Treg in the spleen vs vehicle-injected tumor-bearing mice ([1]; Day 11, 2 days post CTX 100 mg/kg IP) | outcome of mice, CTX alone group ([2]; CTX 100 mg/kg day 10) | cure rate (AB1-HA tumor) [%] | mice survived on Day 100 (SP-1 cells) [%] | binding to CHO.PD-1 cells (median fluorescence intensity) [3] | binding to untransfected CHO cells (median fluorescence intensity) [4] | CD4+ T cells expressing high PD-1 ([1]; Day 16, 7 days post CTX and 6 days post B7-DC-Ig 100 ug, draining LN) | tumor eradication ([2]; cyclophosphamide 100 mg/kg day 9, 30 μg B7-DC-Ig from Day 10, 2 doses per week, 8 doses) [%] | tumor eradication ([2]; cyclophosphamide 100 mg/kg day 9, 100 μg B7-DC-Ig from Day 10, 2 doses per week, 8 doses) [%] | mice that eradicated the tumors ([2]; cyclophosphamide 100 mg/kg day 9, 300 μg B7-DC-Ig from Day 10, 2 doses per week, 8 doses) [%] | competition with B7-H1 for binding to PD-1 (PD-1)
1 | O=P1(N(CCCl)CCCl)NCCCO1 (stereo not drawn) [CTX, cyclophosphamide, reference compound] | significantly lower | died as a result of tumor growth or were euthanized | 75 | 17 |  |  |  |  |  |  | 
2 | B1 |  |  |  |  | binds to CHO.PD-1 cells | not untransfected CHO cells |  |  |  |  | 
3 | B2 |  |  |  | 17 |  |  | significantly lowered the CD4+ T cells expressing high PD-1 | 10 | 40 | 70 | competes with B7-H1 for binding to PD-1
